Patent US20250228941, “CELLULAR THERAPY” (UNIVERSITÄt BASEL, published 2025)

Assays:
Details in all cases: tags: His-tag, Abcam ab198455, labeled with RED-Tris-NTA
[1] = target: T1, PHGDH (D-3-phosphoglycerate dehydrogenase) (Homo sapiens, UniProt O43175 SEQ:1-533); experiment: MST; high response amplitude; fitted to Kd model but no value given; 50 nM PHGDH, RNA 13-850 nM; 10 mM Tris HCl, 50 mM KCl, 0.5 mM EDTA, 0.1 mg/ml BSA, 10% glycerol
T1 sequence: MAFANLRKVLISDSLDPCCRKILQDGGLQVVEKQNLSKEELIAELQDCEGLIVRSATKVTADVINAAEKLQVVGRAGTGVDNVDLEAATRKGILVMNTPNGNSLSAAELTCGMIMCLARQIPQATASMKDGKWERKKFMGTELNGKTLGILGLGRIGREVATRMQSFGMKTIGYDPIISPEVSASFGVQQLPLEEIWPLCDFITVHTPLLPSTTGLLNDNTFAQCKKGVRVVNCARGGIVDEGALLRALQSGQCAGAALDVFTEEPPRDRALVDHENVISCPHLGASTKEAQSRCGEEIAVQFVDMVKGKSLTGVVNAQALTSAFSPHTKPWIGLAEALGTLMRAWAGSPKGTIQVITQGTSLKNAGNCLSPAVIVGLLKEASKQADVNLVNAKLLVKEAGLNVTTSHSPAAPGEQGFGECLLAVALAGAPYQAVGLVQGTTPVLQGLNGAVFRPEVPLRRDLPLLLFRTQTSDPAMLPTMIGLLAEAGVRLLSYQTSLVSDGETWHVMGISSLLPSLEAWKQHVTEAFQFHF
Protocol: (§1) Data were fitted to the Kd model.
(§2) Microscale thermophoresis experiments were performed using a NanoTemper® Monolith NT.115 (NanoTemper Tenchologies, Germany) with blue and red filters. His-tagged PHGDH protein was labeled using the Monolith His-Tag labeling Kit RED-Tris-NTA 2nd generation (SKU: MO-L018), according to manufacturer's protocol (Step B, Step C). Briefly, 90 μl of PHGDH protein (200 nM) was mixed with 90 μl of dye (100 nM) and incubated for 30 min at RT. Samples were centrifuged for 10 min at 4° C. at 15.000×g and transferred into a fresh tube. RNA was brought to a concentration of 1700 nM and a serial dilution of 1:2 over 16 steps in binding buffer (10 mM Tris HCl, 50 mM KCl, 0.5 mM EDTA, 0.1 mg/ml BSA, 10% (v/v) Rnase/Dnase free glycerol) was performed. Fluorescently labeled protein was added at a final concentration of 50 nM to each tube. 16 capillaries were loaded with IRF1 3′UTR RNA (highest concentration 850 nM) and PHGDH protein (50 nM). Samples were measured with the following settings: 20% LED/excitation and medium MST power. At the final dye concentration of 25 nM, the expected fluorescence intensity at 20% LED/excitation is around 300 counts on a Monolith NT.115.

[2] = target: T1, PHGDH (D-3-phosphoglycerate …); experiment: MST; mutation impeded binding; RNA up to 850 nM, same buffer
Protocol: as §1, §2

[3] = target: T1, PHGDH (D-3-phosphoglycerate …); experiment: MST; low response amplitude; no AU-rich elements; RNA up to 850 nM, same buffer
Protocol: as §2

## AGGAAUUGAACUUUUAAUUGCAUUUAAUAAACUGUAUGUAAAUAGUCA (ssRNA) [IRF1 3'UTR fragment 3 (Fg3)]
[1]
  binding result: binds

## AGGAAUUGAACCCUUAAUUGCAUUUAAUAAACUGUAUGUAAAUAGUCA (ssRNA) [mutated fragment 3 (muFg3)]
[2]
  binding result: no binding

## ACAUGUGCCAGCUAAGCACUUGAAAUGUGGCCAGUGCAAUA (ssRNA) [IRF1 3'UTR fragment 4 (Fg4)]
[3]
  binding result: no binding
